From paper PMC5959942, “Targeting G protein-coupled receptor signaling at the G protein level with a selective nanobody inhibitor” (Nature Communications, 2018)
Positions count from the first letter of the chain named.

What was measured:
[1] = biological target: T1, bovine Gβ1γ1 dimer (β1γ1 subunits of the visual G protein Gt, transducin) (bovine, UniProt P62871;P02698)
[2] = biological target: T2, Venus-Gβ1γ2 (Venus 156-239-Gβ1 + Venus 1-155-Gγ2) (UniProt P62873;P59768); assay: FRET or BRET; BRET between Venus-Gβγ and masGRK3ct-Nluc-HA in living HEK293T/17 cells, room temperature; GαoA, Nb5-Flag or Nb17-Flag co-transfected as competitor (plasmid ratio GαoA:Gβ:Gγ2:masGRK3ct:nanobody 2:1:1:1:12); details: partners not purified
T2 construct: G protein beta subunit subtype 1; G protein gamma subunit 2; also called Venus-Gβγ; source: HEK293T/17, transfected, in living cells

[3] = biological target: T3, Venus-Gβ2γ2 (Venus 156-239-Gβ2 + Venus 1-155-Gγ2) (UniProt P62879;P59768); assay: as above; details: partners not purified
T3 construct: G protein beta subunit subtype 2, GenBank AF501883; G protein gamma subunit 2; also called Venus-Gβγ; Gβ2 + Gγ2 pair; source: HEK293T/17, transfected, in living cells; not shown: Venus 156-239 (with GGSGGG linker), N-terminal, kept

[4] = biological target: T4, Venus-Gβ3γ2 (Venus 156-239-Gβ3 + Venus 1-155-Gγ2) (UniProt P16520;P59768); assay: as above; details: partners not purified
T4 construct: G protein beta subunit subtype 3, GenBank M31328; G protein gamma subunit 2; also called Venus-Gβγ; Gβ3 + Gγ2 pair; source: HEK293T/17, transfected, in living cells; not shown: Venus 156-239 (with GGSGGG linker), N-terminal, kept

[5] = biological target: T5, Venus-Gβ4γ2 (Venus 156-239-Gβ4 + Venus 1-155-Gγ2) (UniProt Q9HAV0;P59768); assay: as above; details: partners not purified
T5 construct: G protein beta subunit subtype 4, GenBank AF300648; G protein gamma subunit 2; also called Venus-Gβγ; Gβ4 + Gγ2 pair; source: HEK293T/17, transfected, in living cells; not shown: Venus 156-239 (with GGSGGG linker), N-terminal, kept

[6] = biological target: T1, bovine Gβ1γ1 dimer (β1γ1 subunits of …); assay: SPR; same set-up as a5; affinity based (equilibrium) analysis; details: both partners purified
[7] = biological target: T1, bovine Gβ1γ1 dimer (β1γ1 subunits of …); assay: SPR; Biacore T100, 25 °C; Nb5 amine-coupled on CM5 (400-500 RU); Gβ1γ1 0.6-312 nM in 10 mM HEPES pH 7.5, 150 mM NaCl, 1 mM TCEP, 0.1% Tween-20; single-cycle kinetics, 1:1 Langmuir fit; details: both partners purified
[8] = biological target: T6, mouse Gβ1 subtype from brain (mouse (endogenous in C57BL/6J brain), UniProt P62874); assay: affinity purification with mass spectrometry; cholate-solubilized, DEAE-purified C57BL/6J mouse brain extract with a two molar excess of His-tagged Nb5, Ni2+-NTA then Talon resin; Gβ gel band digested in gel, LC-MS/MS; details: one partner purified
T6 construct: G protein beta subunit subtype 1, mouse brain; Extracted as Gβγ; the Gγ partner is not identified; source: endogenous, C57BL/6J mouse brain membranes, cholate-solubilized and partially purified (DEAE Sepharose)

[9] = biological target: T7, mouse Gβ2 subtype from brain (mouse (endogenous in C57BL/6J brain), UniProt P62880); assay: as above; details: one partner purified
T7 construct: G protein beta subunit subtype 2, mouse brain; Extracted as Gβγ; the Gγ partner is not identified; source: endogenous, C57BL/6J mouse brain membranes, cholate-solubilized and partially purified (DEAE Sepharose)

[10] = biological target: T8, mouse Gβ3 subtype from brain (mouse (endogenous in C57BL/6J brain), UniProt Q61011); assay: as above; details: one partner purified
T8 construct: G protein beta subunit subtype 3, mouse brain; Extracted as Gβγ; the Gγ partner is not identified; source: endogenous, C57BL/6J mouse brain membranes, cholate-solubilized and partially purified (DEAE Sepharose)

[11] = biological target: T9, mouse Gβ4 subtype from brain (mouse (endogenous in C57BL/6J brain), UniProt P29387); assay: as above; details: one partner purified
T9 construct: G protein beta subunit subtype 4, mouse brain; Extracted as Gβγ; the Gγ partner is not identified; source: endogenous, C57BL/6J mouse brain membranes, cholate-solubilized and partially purified (DEAE Sepharose)

B1: Nb6 (VHH)
VHH: QVQLVESGGGLVQAGGSLRLSCAASGSIFSINAMNWYRQAPGKRRELVAAITNGGSTNYADSVKGRFTISRDNAKNTVYLQMNSLKPEDTAVYYCNVGRSRGYWGQGTQVTVSS
binding result [1]: binds

B2: Nb7 (VHH)
VHH: B1 VHH with G16E, S27N, M34T, R44Q, A50G, N53T, G54R
binding result [1]: binds

B3: Nb5-Flag (Nb5 with the 6 × His-tag replaced by the FLAG-tag) (VHH)
VHH: B1 VHH with N35G, R44Q, N53R, S56R, I69L
notes: source: HEK293T/17, transfected, in living cells; CHO-APJ cells, transiently transfected (pcDNA3.1(+)); not shown: FLAG, C-terminal, kept
binding result [2]: binds | binding result [3]: binds | binding result [4]: binds | binding result [5]: binds

B4: Nb5 (llama-derived nanobody against the Gβ1γ1 dimer), C-terminal His-tag (VHH)
VHH: B1 VHH with N35G, R44Q, N53R, S56R, I69L
notes: Selected from a library in the phage display vector pMESy4; not shown: His6, C-terminal, kept
Kd [6]: 53 nM | Kd [7]: 43 nM | koff [7]: 0.019 s⁻¹ | kon [7]: 440000 M⁻¹ s⁻¹ | binding result [8]: binds | binding result [9]: binds | binding result [10]: binds | binding result [11]: binds
